From US20240043512A1 (IMCARE BIOTECH, published 2024)

T1: Peptide A (entire sequence of AS-SPIK without disulfide bonds) (human, cysteine side-groups inactivated, no disulfide bonds)
T1 construct: Synthesized by BioMatik
T1 peptide: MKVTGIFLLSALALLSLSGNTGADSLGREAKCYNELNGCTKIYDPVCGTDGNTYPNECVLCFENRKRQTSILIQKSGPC

B1: IM-C6 (antibody, V domains shown)
VH: QSVKESEGGLFKPTDALTLTCTVSGFSLSSYAISWVRQAPGSGLEWIGAINTYGGTYYASWAKSRSTITRNTNENTVTLKMTSLTAADTATYFCARDFDSDAYTSASGGMDWGPGTLVTVSS
VL: AYDMTQTPASVEVAVGGTVTIKCQASQSINNYLSWYQQIPGQPPKLLIYRASTLASGVSSRFKGSGSGTQFTLTISGVQCADAATYYCQQGYTSNVDNVFGGGTEVVVKG
notes: Rabbit monoclonal, Class II
B2: IM-E2 (antibody, V domains shown)
VH: QSVKESEGGLFKPTDTLTLTCTVSGFSLSAYAISWVRQAPGNGLEWIGAINSGGSAYYANWAKSRSTITRNTNLNTVTLKMTSLTAADTATYFCAREDIYDYGGAFDPWGPGTLVTVST
VL: AYDMTQTPASVEVTVGGTVTIKCQASQGISSYLSWYQQKPGQPPKLLIYAATTLVSGVSSRFKGSGSGTQFTLTISGVECADAATYYCQQDYTTSNVDNTFGGGTEVVVKG
notes: Rabbit monoclonal, Class II

Tests used:
[1] = molecular target: T1, Peptide A (entire sequence of AS-SPIK …); assay: ELISA, plate coated with peptide, HRP-labelled antibody
Excerpt: In order to further support the observation that epitopes specific to AS-SPIK and not NS-SPIK are conformation-dependent, additional tests to evaluate antibody binding to various synthesized peptides was completed. Four peptides, each containing sequences from different regions of AS-SPIK were synthesized by BioMatik (Wilmington DE). Peptide A contains the entire sequence of AS-SPIK, but without the formation of any disulfide bonds via the inactivation of cysteine side-groups. Peptide B contains the sequence of AS-SPIK fragment from M₁-G₅₀, Peptide C contains the sequence of AS-SPIK fragment from D₂₃-G₅₀ and Peptide D contains the sequence of AS-SPIK fragment from N₅₁-C₇₉. The binding activity of our monoclonal antibodies to AS-SPIK and the other peptides was tested by ELISA and results for IM-CA22 are shown in FIG. 6. Similar results were obtained from all other monoclonal anti-AS-SPIK antibodies we have developed, including IM-CA18, IM-CA46, IM-CA77, IM-A1, IM-A6, IM-B10, IM-C6, IM-D3, IM-D5, IM-E2, IM-F5, IM-G6 and IM-G7. Briefly, a 96-well plate was coated with Native AS-SPIK and different peptides, the plate then reacted with anti-AS-SPIK antibody (IM-CA22 herein) labeled with HRP. The OD450 nm was determined after incubating the plate with the substrate, TMB.

IM-CA22 = assay: competition ELISA: 0.5 µg/mL peptide added to prevent the binding of AS-SPIK with IM-CA22; inhibition rate from OD value with vs without peptide
Sequence of IM-CA22 (VH, as listed by the source, chain 1 of 2): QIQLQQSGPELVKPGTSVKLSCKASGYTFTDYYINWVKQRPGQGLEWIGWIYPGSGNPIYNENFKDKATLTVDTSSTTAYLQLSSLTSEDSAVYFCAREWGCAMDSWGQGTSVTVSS
Sequence of IM-CA22 (VL, as listed by the source, chain 2 of 2): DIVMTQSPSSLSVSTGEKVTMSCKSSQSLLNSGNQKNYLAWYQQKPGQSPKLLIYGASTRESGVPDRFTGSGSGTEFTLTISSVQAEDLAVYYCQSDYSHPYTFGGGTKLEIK

Row | Binder | binding result [1] | Inhibition % (IM-CA22) [%]
1 | B1 | no binding | –
2 | SLSGNTGADSLGR [SPIK2] | – | 10
3 | B2 | no binding | –
4 | LLSLSGNTGADSL [SPIK3] | – | 11
5 | SGNTGADSLGREA [SPIK1] | – | 9
6 | LSLSGNTGA [SPIK8] | – | 11
